Substitutions are numbered along the chain they refer to.

Among the data in patent US20260028391A1 are Kd, MPV D280 Neutralization - IC50 and RSV Neutralization - IC50 values, retold here.

Test [1] has as its target MPV fusion glycoprotein without the D280N mutation (MPV-F D280) (metapneumovirus). Briefly: SPR; F protein loaded on streptavidin sensors, mAb in solution. On the technique in general: Surface plasmon resonance follows binding to a sensor surface in real time, without labels.
Test [2] has as its target MPV fusion glycoprotein with the D280N mutation (MPV-F N280) (metapneumovirus). Described as above.
Test [3] addresses fusion glycoprotein of the MPV D280 used in the neutralization assay of Example 3 (metapneumovirus (strain not stated)). Briefly: cell-based or functional assay.
In test [4] the target is fusion glycoprotein of the RSV used in the neutralization assay of Example 1 (respiratory syncytial virus (strain not stated)). The experiment in a line: cell-based or functional assay.

B1: MPK141 (antibody, V domains shown)
VH: EVQLVESGGGLVKPGGSLRLSCAASGFTISGYYMTWIRQAPGKGLEWISYISGSSSYTNYADSVKGRFTISRDNGRNSVYLQMNSLRADDTGVYYCAREETPSPGPFDSWGQGILVTVSS
VL: QSVLTQPPSVSGAPGQRIIISCIGSSSNIGTGYDVHWYQQLPGRAPKLLISRNTNRPSGIPDRFSGSKSGTSASLAITGLQADDEADYYCQSYDRGLDGWVFGGGTKLTVL
As usually defined, the Kd is the free concentration of one partner at which half of the binding sites on the other are occupied at equilibrium, for simple one-to-one binding. A low value points to higher affinity. Turning to B1, the values for the Kd in test [1] and in test [2] were 0.001 nM and 0.84 nM, respectively. This molecule gave an MPV D280 Neutralization - IC50 in test [3] of 0.0098 µg/mL. The molecule also came in with an RSV Neutralization - IC50 in test [4] of 0.014 µg/mL.

B2: MPK174-v2 (antibody, V domains shown)
VH: EVQLVESGGGLVKPGGSLRLSCAASRFKFGDYYMSWIRQAPGKGLEWVSNISPSSSYTNYADSVKGRFTISRDNAKNLLYLQMNSLRAEDTAVYYCARESCSGGSCSLHGMDVWGQGTTVTVAS
VL: QSVLTQPPSVSGAPGQRVTISCTGSSSNIGAGYDVHWYQQLPGTAPKLLIYDNSNRPSGVPDRFSGSKSGTSASLAITGLRAEDDADYYCQSYDRSLGGSIFGGGTKLTVL
With B2, the values for the Kd in test [1] and in test [2] were 11 nM and 100 nM, respectively. The same molecule yielded an MPV D280 Neutralization - IC50 in test [3] of 0.0177 µg/mL. This molecule also came in with an RSV Neutralization - IC50 in test [4] of 0.0136 µg/mL.

B3: MPK144 (antibody, V domains shown)
VH: EVQLVESGGGLVRPGGSLRLSCAASGFTFTGYYMMWIRQAPGKGLEWISDISSSSSYTNYADSVKGRFAISRDNAQNTLYLQMNSLRAEDTAVYYCATEQVPSPGPFDLWGQGTLVTVSS
VL: B2 VL with I29F, L41F, A45S, D52R, S54T, R81Q, D85E, G98T, S100W, I101V
B3: the values for the Kd in test [1] and in test [2] were 0.81 nM and 100 nM, respectively. This molecule also gave an MPV D280 Neutralization - IC50 in test [3] of 0.0049 µg/mL. In addition, the RSV Neutralization - IC50 in test [4] turned out to be 0.0082 µg/mL.

B4: MPK196 (antibody, V domains shown)
VH: B2 VH with E1Q, K76N
VL: B2 VL
On to B4, for which the Kd worked out at 3.8 nM in test [1] and 100 nM in test [2]. The molecule also returned an MPV D280 Neutralization - IC50 in test [3] of 0.027 µg/mL.

B5: MPK162 (antibody, V domains shown)
VH: EVQLVESGGGLVKPGDSLRLSCAASGFSLSSYYMFWIRQAPGKGLEWVSDISGGSTFTNYADSVKGRFTISRDNAKKVLYLQMNSLRVDDSAVYYCVRGSSISPNWFESWGQGALVTVSS
VL: QSVLTQPPSVSGAPGQRVTISCTGTSSNIGAGYDVHWYQQVPGTAPKLLIYGNSNRPSGVPDRFSGSKSGTAASLAINGLQTEDEAEYYCQSYDRSLTGSYVFGSGTRVFVR
On to B5, for which the Kd in test [1] and in test [2] was 100 nM in each case. This molecule registered an MPV D280 Neutralization - IC50 in test [3] of 0.102 µg/mL. The molecule further came in with an RSV Neutralization - IC50 in test [4] of 0.0252 µg/mL.

B6: MPK126 (antibody, V domains shown)
VH: EVQLVESGGGLVKPGGSMRLSCAASGVTLSGYYMIWIRQAPGKGLEWISDISASSTYTDYADSVKGRFTVSRDNSQNTVYLQMNSLRAEDTAVYYCATEQTPSPGPFDLWGQGTLVTVSS
VL: QSVLTQPPSVSGAPGQRVTISCTGSSSNVGAGYDVHWYQQFPGTSPKLLIYRNTNRPSGVPDRFSGFKSGTSASLAITGLEAEDEADYYCQSYDRSLSGWVFGAGTKLTVL
As for B6, the Kd worked out at 0.001 nM in test [1] and 0.21 nM in test [2]. The molecule further had an MPV D280 Neutralization - IC50 in test [3] of 0.0236 µg/mL. Further, the RSV Neutralization - IC50 in test [4] came to 0.0264 µg/mL.

B7: MPK151 (antibody, V domains shown)
VH: B6 VH with M18L, V27L, L29I, D62E, T69S, V70I, S75G
VL: B6 VL with R17K, V18I, S25G, V29F, N55F, F67S, E81Q, A104G
For B7, the Kd in test [1] was determined as 0.001 nM; in test [2], 0.27 nM. The same molecule came in with an MPV D280 Neutralization - IC50 in test [3] of 0.0178 µg/mL. The RSV Neutralization - IC50 in test [4] turned out to be 0.0375 µg/mL.

B8: MPK136 (antibody, V domains shown)
VH: EVQLVESGGGLVKPGGSLRLSCEASGFSLSGYYMIWIRQAPGKGLEWISSISGSGNYINYADSVKGRFTVSRDNGHNTLYLQMNSLRVEDTAVYYCATEQTPSPGPFDHWGQGTLVTVSS
VL: QVQLVQPPSVSGAPGQRVSISCTGTSSNIGTGYDVHWYQQFPGTSPKLLIYRNTNRPSGVPDRFSGSKSGSSASLAIAGLQAEDEADYYCQSYDRSVSGWVFGGGTKLTVL
Take B8: the Kd in test [1] was 0.001 nM; in test [2], 4.6 nM. In test [3], this molecule returned an MPV D280 Neutralization - IC50 of 0.0158 µg/mL. In test [4], this molecule yielded an RSV Neutralization - IC50 of 0.0344 µg/mL.

B9: MPK150-v2 (antibody, V domains shown)
VH: EVQLVESGGGLVKPGGSLRLSCEASGISLSGYYMIWIRQAPGKGLEWISSISGSSTYIDYADSVRGRFTISRHNGQNTIYLQMNSLRVEDTAVYFCATEQTPSPGPFELWGRGILVTVSS
VL: B8 VL with V2S, Q3V, V5T, S19T, S21F, Y51F, T54S, S96G, S98N
For B9, the Kd was determined as 0.001 nM in test [1] and 0.58 nM in test [2]. Besides, the MPV D280 Neutralization - IC50 in test [3] is 0.0158 µg/mL. In test [4], the RSV Neutralization - IC50 was found to be 0.0147 µg/mL.

B10: MPK149 (antibody, V domains shown)
VH: QVQLVESGGGLVKPGGSLRLSCEASGFTISGYFMIWIRQAPGKGLEWISSISGSSTYTDYAESVKGRFTISRDNGRSTLYLQMNSLRVEDTAVYYCATEQTPSPGPFDLWGQGTLVTVSS
VL: B8 VL with V2S, Q3V, L4V, V5T, S19T, T31A, K47R, Y51N, K68Q
For B10, the figures for the Kd in test [1] and in test [2] were 0.001 nM and 0.4 nM, respectively. The MPV D280 Neutralization - IC50 in test [3] worked out at 0.0192 µg/mL. In test [4], this molecule came in with an RSV Neutralization - IC50 of 0.0335 µg/mL.

B11: MPK142-v1 (antibody, V domains shown)
VH: EVQLVESGGGLVEPGGSLRLSCAASGFTISGYGMSWVRQAPGKGLEWVSSISASSSYIYYGDAMKGRITISRDNGWNSMYLQMNSLRTEDTAVYYCATAPIEPPYFDLWGRGTLVTVSS
VL: QSVLTQPPSVSGAPGQRVTISCTGSSSNIGAGYDVHWYQQFPGKAPKVLIYGNNNRPSGVPDRFAASNSGASASLAITGLQAEDEAAYFCQSYDRRLSGPVFGGGTKLTVL
With B11, the Kd in test [1] and in test [2] was 100 nM in each case. The MPV D280 Neutralization - IC50 in test [3] was 0.003 µg/mL. The same molecule had an RSV Neutralization - IC50 in test [4] of 0.0211 µg/mL.

B12: MPK145 (antibody, V domains shown)
VH: B11 VH
VL: B11 VL with L4V
With B12, the values for the Kd in test [1] and in test [2] were 0.001 nM and 0.85 nM, respectively. This molecule came in with an MPV D280 Neutralization - IC50 in test [3] of 0.0078 µg/mL. In addition, the RSV Neutralization - IC50 in test [4] turned out to be 0.0239 µg/mL.

B13: MPK142-v2 (antibody, V domains shown)
VH: B11 VH
VL: DIQLTQTPTSLSASVGDRVTFTCRASQNIGFYLNWYQQKPGKAPRLLIYGASNLQSGVPSRFSGSGAGTDFSLTISSLQPEDFATYYCQQSFNTPRTFGQGTKVEIN
On to B13, for which the Kd in test [1] was found to be 0.0027 nM; in test [2] it was 0.2 nM. The MPV D280 Neutralization - IC50 in test [3] turned out to be 0.135 µg/mL. This molecule returned an RSV Neutralization - IC50 in test [4] of 0.162 µg/mL.
